{"source": "paper PMC5305270", "binders": {"B1": {"name": "PAT-3::GFP (wild type), Q27874 Y792A; Y804A (protein)", "chain": "ASDWKTGEVTGKVVEKSEFPCYSLSRDNYTCSACIQYHESCAWCGAPMFDEKKPYARCDSRAKLMEHGCPNSYIEDPATKLDITEDSKLSDQGQVESEEEAVQIKPQEMYVEIRPKSRVRFNVTYRQAVDYPVDLYYLMDLSYSMKDDKQKLSELGDLLAERMRTVTKNFRLGFGSFIDKKLMPFIDPRIEKQLSPCPTPCAEPYGFKHQMSLTTNTAKFKAEVDKAEISGNLDAPEGGFDAVVQALACNKTIGWRERARKMIVFSTDAGFHFAGDGRLAGVVEPNDGTCHLDREGYYTETLNQDYPSIALLHQMIKDRKANVIFAVTKNNQDLYTQLSNALPDVSSSVGVLANDSRNIVDLIEKEYLKISEKIIMVDNANASEGLKLTYRSMCLDGTTLKDTNVCEGIRVGDEVQFEVTLENTHCIDKRDFVLRIGPSGLDETLIVNVKVLCDCDCERQDRIVTNSADCNGGDMVCGVCRCKGGNVGKYCECNRPGMSTAALNEKCKRTNESAICEGRGVCNCGRCECNPRANPEEQISGEFCECDNFNCPRHDRKICAEHGECNCGKCICAPGWTGRACECPISTDSCLSANGKICNGKGECICGRCRCFDSPDGNRYSGAKCEICPTCPTKCVEYKNCVMCQQWQTGPLNETACDQCEFKVIPVEELPNLNETTPCQFVDPADDCTFYYLYYYDEATDNATVWVRKHKDCPPPVPVLAIVLGVIAGIVILGILLLLLWKLLTVLHDRSEYATFNNERLMAKWDTNENPIAKQATTTFKNPVAAGKAN"}, "B2": {"name": "PAT-3::GFP (wild type), Q27874 Y792A (protein)", "chain": "ASDWKTGEVTGKVVEKSEFPCYSLSRDNYTCSACIQYHESCAWCGAPMFDEKKPYARCDSRAKLMEHGCPNSYIEDPATKLDITEDSKLSDQGQVESEEEAVQIKPQEMYVEIRPKSRVRFNVTYRQAVDYPVDLYYLMDLSYSMKDDKQKLSELGDLLAERMRTVTKNFRLGFGSFIDKKLMPFIDPRIEKQLSPCPTPCAEPYGFKHQMSLTTNTAKFKAEVDKAEISGNLDAPEGGFDAVVQALACNKTIGWRERARKMIVFSTDAGFHFAGDGRLAGVVEPNDGTCHLDREGYYTETLNQDYPSIALLHQMIKDRKANVIFAVTKNNQDLYTQLSNALPDVSSSVGVLANDSRNIVDLIEKEYLKISEKIIMVDNANASEGLKLTYRSMCLDGTTLKDTNVCEGIRVGDEVQFEVTLENTHCIDKRDFVLRIGPSGLDETLIVNVKVLCDCDCERQDRIVTNSADCNGGDMVCGVCRCKGGNVGKYCECNRPGMSTAALNEKCKRTNESAICEGRGVCNCGRCECNPRANPEEQISGEFCECDNFNCPRHDRKICAEHGECNCGKCICAPGWTGRACECPISTDSCLSANGKICNGKGECICGRCRCFDSPDGNRYSGAKCEICPTCPTKCVEYKNCVMCQQWQTGPLNETACDQCEFKVIPVEELPNLNETTPCQFVDPADDCTFYYLYYYDEATDNATVWVRKHKDCPPPVPVLAIVLGVIAGIVILGILLLLLWKLLTVLHDRSEYATFNNERLMAKWDTNENPIAKQATTTFKNPVYAGKAN"}, "B3": {"name": "PAT-3::GFP (wild type), Q27874 TTT796-798AAA (protein)", "chain": "ASDWKTGEVTGKVVEKSEFPCYSLSRDNYTCSACIQYHESCAWCGAPMFDEKKPYARCDSRAKLMEHGCPNSYIEDPATKLDITEDSKLSDQGQVESEEEAVQIKPQEMYVEIRPKSRVRFNVTYRQAVDYPVDLYYLMDLSYSMKDDKQKLSELGDLLAERMRTVTKNFRLGFGSFIDKKLMPFIDPRIEKQLSPCPTPCAEPYGFKHQMSLTTNTAKFKAEVDKAEISGNLDAPEGGFDAVVQALACNKTIGWRERARKMIVFSTDAGFHFAGDGRLAGVVEPNDGTCHLDREGYYTETLNQDYPSIALLHQMIKDRKANVIFAVTKNNQDLYTQLSNALPDVSSSVGVLANDSRNIVDLIEKEYLKISEKIIMVDNANASEGLKLTYRSMCLDGTTLKDTNVCEGIRVGDEVQFEVTLENTHCIDKRDFVLRIGPSGLDETLIVNVKVLCDCDCERQDRIVTNSADCNGGDMVCGVCRCKGGNVGKYCECNRPGMSTAALNEKCKRTNESAICEGRGVCNCGRCECNPRANPEEQISGEFCECDNFNCPRHDRKICAEHGECNCGKCICAPGWTGRACECPISTDSCLSANGKICNGKGECICGRCRCFDSPDGNRYSGAKCEICPTCPTKCVEYKNCVMCQQWQTGPLNETACDQCEFKVIPVEELPNLNETTPCQFVDPADDCTFYYLYYYDEATDNATVWVRKHKDCPPPVPVLAIVLGVIAGIVILGILLLLLWKLLTVLHDRSEYATFNNERLMAKWDTNENPIYKQAAAAFKNPVYAGKAN"}, "B4": {"name": "PAT-3::GFP (wild type), Q27874 Y804A (protein)", "chain": "ASDWKTGEVTGKVVEKSEFPCYSLSRDNYTCSACIQYHESCAWCGAPMFDEKKPYARCDSRAKLMEHGCPNSYIEDPATKLDITEDSKLSDQGQVESEEEAVQIKPQEMYVEIRPKSRVRFNVTYRQAVDYPVDLYYLMDLSYSMKDDKQKLSELGDLLAERMRTVTKNFRLGFGSFIDKKLMPFIDPRIEKQLSPCPTPCAEPYGFKHQMSLTTNTAKFKAEVDKAEISGNLDAPEGGFDAVVQALACNKTIGWRERARKMIVFSTDAGFHFAGDGRLAGVVEPNDGTCHLDREGYYTETLNQDYPSIALLHQMIKDRKANVIFAVTKNNQDLYTQLSNALPDVSSSVGVLANDSRNIVDLIEKEYLKISEKIIMVDNANASEGLKLTYRSMCLDGTTLKDTNVCEGIRVGDEVQFEVTLENTHCIDKRDFVLRIGPSGLDETLIVNVKVLCDCDCERQDRIVTNSADCNGGDMVCGVCRCKGGNVGKYCECNRPGMSTAALNEKCKRTNESAICEGRGVCNCGRCECNPRANPEEQISGEFCECDNFNCPRHDRKICAEHGECNCGKCICAPGWTGRACECPISTDSCLSANGKICNGKGECICGRCRCFDSPDGNRYSGAKCEICPTCPTKCVEYKNCVMCQQWQTGPLNETACDQCEFKVIPVEELPNLNETTPCQFVDPADDCTFYYLYYYDEATDNATVWVRKHKDCPPPVPVLAIVLGVIAGIVILGILLLLLWKLLTVLHDRSEYATFNNERLMAKWDTNENPIYKQATTTFKNPVAAGKAN"}, "B5": {"name": "PAT-3::GFP (wild type), Q27874 Y772A (protein)", "chain": "ASDWKTGEVTGKVVEKSEFPCYSLSRDNYTCSACIQYHESCAWCGAPMFDEKKPYARCDSRAKLMEHGCPNSYIEDPATKLDITEDSKLSDQGQVESEEEAVQIKPQEMYVEIRPKSRVRFNVTYRQAVDYPVDLYYLMDLSYSMKDDKQKLSELGDLLAERMRTVTKNFRLGFGSFIDKKLMPFIDPRIEKQLSPCPTPCAEPYGFKHQMSLTTNTAKFKAEVDKAEISGNLDAPEGGFDAVVQALACNKTIGWRERARKMIVFSTDAGFHFAGDGRLAGVVEPNDGTCHLDREGYYTETLNQDYPSIALLHQMIKDRKANVIFAVTKNNQDLYTQLSNALPDVSSSVGVLANDSRNIVDLIEKEYLKISEKIIMVDNANASEGLKLTYRSMCLDGTTLKDTNVCEGIRVGDEVQFEVTLENTHCIDKRDFVLRIGPSGLDETLIVNVKVLCDCDCERQDRIVTNSADCNGGDMVCGVCRCKGGNVGKYCECNRPGMSTAALNEKCKRTNESAICEGRGVCNCGRCECNPRANPEEQISGEFCECDNFNCPRHDRKICAEHGECNCGKCICAPGWTGRACECPISTDSCLSANGKICNGKGECICGRCRCFDSPDGNRYSGAKCEICPTCPTKCVEYKNCVMCQQWQTGPLNETACDQCEFKVIPVEELPNLNETTPCQFVDPADDCTFYYLYYYDEATDNATVWVRKHKDCPPPVPVLAIVLGVIAGIVILGILLLLLWKLLTVLHDRSEAATFNNERLMAKWDTNENPIYKQATTTFKNPVYAGKAN"}}}
{"target": "T1, GST::DEP-1intra-DA (intracellular domain of C. elegans DEP-1 with the substrate trapping mutation D1241A, GST fusion), G5EGJ9", "T1 chain": "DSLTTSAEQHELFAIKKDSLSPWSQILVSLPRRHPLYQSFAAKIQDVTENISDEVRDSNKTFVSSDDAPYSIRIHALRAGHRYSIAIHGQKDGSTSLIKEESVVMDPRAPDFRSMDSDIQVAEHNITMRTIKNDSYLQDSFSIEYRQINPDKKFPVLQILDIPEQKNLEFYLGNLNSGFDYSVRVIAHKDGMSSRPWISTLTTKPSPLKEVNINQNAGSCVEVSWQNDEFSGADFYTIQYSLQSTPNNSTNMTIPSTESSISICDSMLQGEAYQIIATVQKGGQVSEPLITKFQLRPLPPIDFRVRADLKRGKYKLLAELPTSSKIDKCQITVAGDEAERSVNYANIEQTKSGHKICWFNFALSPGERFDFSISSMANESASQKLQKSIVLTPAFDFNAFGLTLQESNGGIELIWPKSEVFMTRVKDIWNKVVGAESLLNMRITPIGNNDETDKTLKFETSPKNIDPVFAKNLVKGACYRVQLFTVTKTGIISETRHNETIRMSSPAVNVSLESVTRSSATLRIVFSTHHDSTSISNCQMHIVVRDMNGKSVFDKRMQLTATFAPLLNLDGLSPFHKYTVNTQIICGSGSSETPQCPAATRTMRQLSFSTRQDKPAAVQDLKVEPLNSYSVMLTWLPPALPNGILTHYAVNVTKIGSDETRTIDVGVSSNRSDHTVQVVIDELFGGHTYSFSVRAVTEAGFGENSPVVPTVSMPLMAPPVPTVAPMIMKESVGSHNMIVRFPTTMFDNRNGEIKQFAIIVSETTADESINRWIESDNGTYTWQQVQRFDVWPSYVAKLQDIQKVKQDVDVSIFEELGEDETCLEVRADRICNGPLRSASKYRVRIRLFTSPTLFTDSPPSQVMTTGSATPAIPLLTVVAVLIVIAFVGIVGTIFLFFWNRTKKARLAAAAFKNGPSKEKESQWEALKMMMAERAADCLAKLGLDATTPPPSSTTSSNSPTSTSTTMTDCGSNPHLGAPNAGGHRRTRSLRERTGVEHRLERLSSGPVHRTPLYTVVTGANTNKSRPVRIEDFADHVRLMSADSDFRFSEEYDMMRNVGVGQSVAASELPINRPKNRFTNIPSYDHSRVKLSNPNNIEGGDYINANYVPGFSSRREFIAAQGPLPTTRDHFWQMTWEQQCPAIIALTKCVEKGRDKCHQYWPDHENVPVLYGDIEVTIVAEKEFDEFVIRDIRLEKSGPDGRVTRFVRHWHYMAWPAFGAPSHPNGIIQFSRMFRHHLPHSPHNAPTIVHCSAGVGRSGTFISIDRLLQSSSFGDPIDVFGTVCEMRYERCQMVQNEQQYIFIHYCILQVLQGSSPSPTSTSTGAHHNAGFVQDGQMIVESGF", "assay": "GST pull-down, anti-GFP Western blot, densitometry", "conditions": "chain shown with the change; three independent experiments; band intensities normalized to input; parent: est. 100; read off a plot", "units": {"percent of parent": "%"}}
{"binder": "B1", "percent of parent": 13}
{"binder": "B2", "percent of parent": 10}
{"binder": "B3", "percent of parent": 13}
{"binder": "B4", "percent of parent": 92}
{"binder": "B5", "percent of parent": 37}
